In publication PMC3765442:
One block for each binder: values may come before it.

Tests used:
Conditions in all cases: remark: other sources report otherwise
[1] = biological target: T1, EB1-GFP (C-terminally EGFP-His-tagged human EB1) (human), Q15691; assay: SEC-MALS; Superdex 200 10/30 with in-line multi-angle light scattering; 1 to 4 mg/ml injected in 100 µl (about 1 µM at the peak); 20 mM Tris-HCl pH 7.5, 300 mM NaCl, 2 mM DTT; room temperature; single experiments
T1 chain: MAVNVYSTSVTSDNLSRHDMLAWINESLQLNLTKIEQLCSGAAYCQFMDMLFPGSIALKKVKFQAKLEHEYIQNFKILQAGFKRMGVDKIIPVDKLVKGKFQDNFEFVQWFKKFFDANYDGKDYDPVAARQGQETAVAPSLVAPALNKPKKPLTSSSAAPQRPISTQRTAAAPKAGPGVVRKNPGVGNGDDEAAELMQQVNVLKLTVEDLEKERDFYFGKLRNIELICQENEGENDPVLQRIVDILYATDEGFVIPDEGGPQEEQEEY

[2] = biological target: T1, EB1-GFP (C-terminally EGFP-His-tagged …); assay: AUC; fluorescence sedimentation velocity (GFP signal at 488 nm), 22°C; dilution series from about 500 to about 0.5 nM (monomer equivalents); 20 mM Tris-HCl pH 7.5, 300 mM NaCl, 0.2 mg/ml BSA, 2 mM DTT or 0.1 mM TCEP; samples incubated 16 hours at 22°C; dimer to monomers; apparent Kd
[3] = biological target: T2, EB1-GFP[A206K] (human), Q15691; assay: as above
T2 chain: T1 chain

stoichiometry N [1]: 2 | stoichiometry N [2]: 2
B1: EB1-GFP (C-terminally EGFP-His-tagged human EB1), Q15691 1-268 (natural protein)
chain: T1 chain

stoichiometry N [3]: 2
B2: EB1-GFP[A206K], Q15691 1-268 (natural protein)
chain: T1 chain
